We go through four substances from patent EP3971294A1.

What all share (test): cell-based or functional assay
For assay [1], the target named is CenNLS^NLuc: Centauri fragment of NanoLuc, HA tag, triple SV40 NLS.
Assay [2] concerns the target CenNLS^GFP: Centauri fragment of superfolder GFP, HA tag, triple SV40 NLS.
The target of assay [3] is CenNup214^NLuc: Centauri fragment of NanoLuc, HA tag, full-length Nup214 (UniProt P35658).
UniProt P35658, sequence (P35658 whole entry, the tested form may be a part): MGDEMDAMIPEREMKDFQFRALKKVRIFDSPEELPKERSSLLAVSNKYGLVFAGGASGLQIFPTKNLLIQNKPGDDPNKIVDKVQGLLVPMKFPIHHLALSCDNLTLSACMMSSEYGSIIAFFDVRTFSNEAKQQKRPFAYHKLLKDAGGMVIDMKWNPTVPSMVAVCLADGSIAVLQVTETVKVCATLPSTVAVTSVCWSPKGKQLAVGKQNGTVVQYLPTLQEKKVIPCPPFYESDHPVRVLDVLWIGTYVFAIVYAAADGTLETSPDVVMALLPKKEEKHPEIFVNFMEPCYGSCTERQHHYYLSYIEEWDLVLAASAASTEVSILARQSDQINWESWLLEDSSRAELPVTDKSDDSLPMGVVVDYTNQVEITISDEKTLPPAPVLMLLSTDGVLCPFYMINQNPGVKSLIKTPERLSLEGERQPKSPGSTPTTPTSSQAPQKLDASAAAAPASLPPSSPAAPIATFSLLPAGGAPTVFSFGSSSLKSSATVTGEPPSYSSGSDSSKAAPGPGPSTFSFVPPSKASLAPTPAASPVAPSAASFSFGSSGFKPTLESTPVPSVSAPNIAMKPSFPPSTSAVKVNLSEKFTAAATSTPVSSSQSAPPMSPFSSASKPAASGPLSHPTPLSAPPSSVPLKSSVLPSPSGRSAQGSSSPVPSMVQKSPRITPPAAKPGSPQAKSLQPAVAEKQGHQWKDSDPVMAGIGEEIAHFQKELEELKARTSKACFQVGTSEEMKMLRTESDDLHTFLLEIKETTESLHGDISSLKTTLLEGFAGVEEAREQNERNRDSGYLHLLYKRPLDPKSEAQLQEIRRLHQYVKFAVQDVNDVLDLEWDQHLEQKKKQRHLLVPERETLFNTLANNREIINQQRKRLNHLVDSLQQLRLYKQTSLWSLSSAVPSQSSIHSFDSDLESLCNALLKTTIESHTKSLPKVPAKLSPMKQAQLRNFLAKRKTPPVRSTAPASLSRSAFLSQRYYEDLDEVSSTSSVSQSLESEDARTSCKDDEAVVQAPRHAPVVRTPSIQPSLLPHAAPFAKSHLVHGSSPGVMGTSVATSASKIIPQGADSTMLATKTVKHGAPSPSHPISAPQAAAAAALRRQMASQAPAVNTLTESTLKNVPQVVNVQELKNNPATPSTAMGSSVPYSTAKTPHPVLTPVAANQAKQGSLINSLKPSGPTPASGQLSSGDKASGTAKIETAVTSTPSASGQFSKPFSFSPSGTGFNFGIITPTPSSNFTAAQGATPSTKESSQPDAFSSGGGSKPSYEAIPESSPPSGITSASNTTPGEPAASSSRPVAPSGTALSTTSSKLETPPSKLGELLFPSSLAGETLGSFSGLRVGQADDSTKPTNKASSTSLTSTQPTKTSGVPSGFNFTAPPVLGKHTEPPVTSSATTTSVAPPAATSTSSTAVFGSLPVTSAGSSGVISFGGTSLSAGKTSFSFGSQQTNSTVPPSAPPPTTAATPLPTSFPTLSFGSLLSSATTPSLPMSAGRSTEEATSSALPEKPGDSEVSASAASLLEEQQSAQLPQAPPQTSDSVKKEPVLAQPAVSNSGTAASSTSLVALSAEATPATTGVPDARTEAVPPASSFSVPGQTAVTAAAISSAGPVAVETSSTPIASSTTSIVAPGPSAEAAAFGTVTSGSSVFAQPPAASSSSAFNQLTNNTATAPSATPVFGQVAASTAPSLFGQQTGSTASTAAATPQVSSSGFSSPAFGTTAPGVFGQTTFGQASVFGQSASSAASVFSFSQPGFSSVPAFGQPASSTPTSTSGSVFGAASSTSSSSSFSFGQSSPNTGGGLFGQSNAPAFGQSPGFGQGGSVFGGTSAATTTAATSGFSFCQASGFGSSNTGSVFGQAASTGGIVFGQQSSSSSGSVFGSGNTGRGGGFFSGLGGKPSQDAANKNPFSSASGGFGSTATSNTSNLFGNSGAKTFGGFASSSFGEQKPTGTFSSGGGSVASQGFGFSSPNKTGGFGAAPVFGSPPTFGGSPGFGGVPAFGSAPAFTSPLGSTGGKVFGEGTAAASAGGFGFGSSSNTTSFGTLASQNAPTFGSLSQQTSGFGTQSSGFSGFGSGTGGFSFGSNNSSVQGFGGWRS

In the case of “IRF3α-3xFLAG: IRF3 fused to the α fragment of NanoLuc and a 3xFLAG tag (from UniProt Q14653 1-427)”, in assay [1], the αCentauri complementation, luminescence fold above uninfected controls (SeV infection, 6 h) was 3 to 6 fold. Turning to “HIV-1 LAI integrase (IN) with α^GFP fused at its C-terminus, as carried by αHIV^GFP (from UniProt P03367 1160-1447)”, the fold increase in fluorescence (flow cytometry, 48 hpi) in assay [2] was 5 to 10 fold. For “HIV-1 LAI integrase (IN) with α^NLuc fused at its C-terminus, as carried by αHIV^NLuc (from UniProt P03367 1160-1447)”, the fold increase in NLuc signal in assay [3] was 10 fold. The fold increase in emitted luminescence signal (plate luminometry) in assay [1] was 5 to 200 fold.

Take “HIV-1 LAI integrase D116I mutant with α^NLuc fused at its C-terminus, as carried by αHIV-D116I^NLuc (from UniProt P03367 1160-1447)”: in assay [1], the fold increase in NLuc compared to infection in the presence of Nevirapine is 10 fold.
